Measurements from US20050070692A1 (published 2005).

What was measured:
[1] = biological target: T1, human IL-1β (human, UniProt P01584 117-269); test: cell-based or functional assay
[2] = biological target: T1, human IL-1β; test: cell-based or functional assay; remark: listed apart in the source
[3] = biological target: T2, mouse IL-1β (mouse, UniProt P10749 118-269); test: BIAcore, antibody captured on anti-IgG chip, ligand flowed
T2 sequence (looked up): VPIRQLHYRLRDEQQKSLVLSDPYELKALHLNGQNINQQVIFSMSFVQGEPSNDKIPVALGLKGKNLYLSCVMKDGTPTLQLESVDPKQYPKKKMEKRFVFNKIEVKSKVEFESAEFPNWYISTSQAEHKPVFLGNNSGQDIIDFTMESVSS
Procedure: (§1) Affinities and specificities of both Hu007 and Mu007 were determined using BlAcore measurements. BIAcore™ is an automated biosensor system that measures molecular interactions. (Karlsson, et al. (1991) J. Immunol. Methods 145: 229-240). In these experiments antibody was immobilized at low density on a BIAcore™ chip. Ethyl-dimethylaminopropyl-carbodiimide (EDC) was used to couple reactive amino groups to purified goat anti-human IgG or goat anti-rabbit IgG to a flow cell of a carboxy-methyl (CM5) BIAcore™ sensor chip. Goat IgG was diluted in sodium acetate buffer, pH 4.0, and immobilized on a flow cell of a CM5 chip using EDC to yield 1000 response units. Unreacted sites were blocked with ehanolamine. A flow rate of 60 μL/min was used. Multiple binding/elution cycles were performed by injection a 100 μL solution of 15 μg/mL Mu007 or Hu007 followed by human IL-1β, mouse IL-1β, rat IL-1β, cynomolgus monkey IL-1β, porcine IL-1β, human IL-1 receptor antagonist, and human IL-1α at decreasing concentrations for each cycle (e.g., 1500, 750, 375, 188, 94, 47, 23.5, 12, and 0 picomolar). Elution was performed with glycine-HCl, pH 1.5. BIAevaluation™ was used to analyze the kinetic data. Table 2 depicts the affinities of Hu007 and Mu007 for human and cynomolgus IL-1β. […] Cynomolgus and porcine IL-1β had 100% binding to Hu007 relative to human IL-1β.

[4] = biological target: T3, rat IL-1β (rat, UniProt Q63264 117-268); test: as above
T3 sequence (looked up): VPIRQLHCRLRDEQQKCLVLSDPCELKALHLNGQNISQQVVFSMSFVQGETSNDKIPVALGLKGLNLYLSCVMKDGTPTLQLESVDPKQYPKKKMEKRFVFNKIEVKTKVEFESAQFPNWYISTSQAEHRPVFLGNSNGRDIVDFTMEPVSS
Procedure: as §1

[5] = biological target: T4, human IL-1 receptor antagonist (human, UniProt P18510 26-177); test: as above
T4 construct: also called IL-1ra
Procedure: as §1

[6] = biological target: T5, human IL-1α (human, UniProt P01583 113-271); test: as above
T5 sequence (looked up): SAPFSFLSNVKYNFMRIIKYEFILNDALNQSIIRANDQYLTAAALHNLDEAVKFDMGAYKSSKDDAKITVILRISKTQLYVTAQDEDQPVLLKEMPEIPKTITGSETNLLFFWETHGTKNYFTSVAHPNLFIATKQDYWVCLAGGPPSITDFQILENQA
Procedure: as §1

[7] = biological target: T6, porcine IL-1β (porcine, UniProt P26889 115-267); test: BIAcore, antibody captured on anti-IgG CM5 chip, IL-1β flowed
T6 sequence (looked up): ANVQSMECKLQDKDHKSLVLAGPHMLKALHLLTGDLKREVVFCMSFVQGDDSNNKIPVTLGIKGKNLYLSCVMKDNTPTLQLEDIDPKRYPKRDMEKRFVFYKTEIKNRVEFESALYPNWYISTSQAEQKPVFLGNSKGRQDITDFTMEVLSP
Procedure: as §1

[8] = biological target: T1, human IL-1β; test: as above
Procedure: as §1

[9] = biological target: T7, cynomolgus monkey IL-1β (cynomolgus monkey, UniProt P79182 117-268); test: as above
T7 construct: also called Cynomolgus IL-1β
T7 sequence (looked up): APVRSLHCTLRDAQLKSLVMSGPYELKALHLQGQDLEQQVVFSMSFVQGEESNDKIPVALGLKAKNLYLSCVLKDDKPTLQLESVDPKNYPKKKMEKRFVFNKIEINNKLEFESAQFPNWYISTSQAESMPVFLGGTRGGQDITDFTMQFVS
Procedure: as §1

[10] = biological target: T1, human IL-1β; test: competition ELISA on coated human IL-1β against biotinylated Mu007, Exp. C
Procedure: (§2) Wells of 96-well ELISA plates (Nunc-lmmuno plate, Cat # 439454, NalgeNunc) were coated with 100 μL of 0.5. μg/mL of human IL-1β in 0.2M sodium carbonate-bicarbonate buffer (pH 9.4) overnight at 4° C., washed with Wash Buffer, blocked with Superblock blocking buffer for 30 min at 37° C., and washed again with Wash Buffer. A mixture of biotinylated Mu007 (0.16 μg/mL final concentration) and competitor antibody (Mu007, Hu007, or Hu007 analogs starting at 100 μg/mL final concentration and serial 3-fold dilutions) in ELISA Buffer were added in triplicate in a final volume of 100 μL per well. As a no-competitor control, 100 μL of 0.16 μg/mL biotinylated Mu007 was used. As a background control, 100 gLL of ELISA Buffer was used. ELISA plates were incubated at 37° C. for 2 hr. After washing the wells with Washing Buffer, 100 μL of 1 μg/mL HRP-conjugated streptavidin (Jackson ImmunoResearch) was added to each well. ELISA plates were incubated at room temperature for 30 min and washed with Washing Buffer. For color development, 100 μL/well of ABTS substrate was added. Color development was stopped by adding 100 μL/well of 2% oxalic acid. Absorbance was read at 415 nm.
Mu007, Hu007 and Hu007 analogs competed with biotinylated Mu007 in a concentration-dependent manner. The IC₅₀ values of Mu007 and Hu007 in three independent ELISA competition experiments, obtained using the computer software Prism (GraphPad Software Inc., San Diego, Calif.) are shown in Table 1. The relative binding of Hu007 was on average 89% of Mu007.

[11] = biological target: T1, human IL-1β; test: competition ELISA on coated human IL-1β against biotinylated Mu007, average
Procedure: as §2
Mu007, Hu007 and Hu007 analogs competed with biotinylated Mu007 in a concentration-dependent manner. […]

T4 sequence (P18510 26-177 limits assumed): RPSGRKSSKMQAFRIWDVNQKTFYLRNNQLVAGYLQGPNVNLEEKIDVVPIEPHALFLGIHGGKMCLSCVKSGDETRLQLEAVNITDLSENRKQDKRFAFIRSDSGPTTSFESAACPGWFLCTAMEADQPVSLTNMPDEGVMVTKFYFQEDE

- IC50, inhibition of IL-1β stimulated proliferation of T1165.17 cells (3H-thymidine), average of three experiments [1]: 0.48 nM
- efficacy relative to Mu007 in the murine model of human IL-1β induced IL-6 [1]: ~0.33 fraction of Mu007
- IC50, inhibition of human IL-1β stimulated proliferation [2]: 57 Picomolar
- binding result [3]: no binding
- binding result [4]: no binding
- binding result [5]: no binding
- binding result [6]: no binding
- binding relative to human IL-1β [7]: 100%
- Kd [8]: 0.0102 nM
- Kd [9]: 0.0104 nM
- binding relative to human IL-1β [9]: 100%
- Hu007/Mu007 × 100 (IC50 ratio, relative binding against Mu007) [10]: 82%
- IC50 [10]: 0.32 µg/mL
- Hu007/Mu007 × 100 (IC50 ratio, relative binding against Mu007) [11]: 89%
B1: humanized antibody Hu007 (antibody, human IgG1, kappa, V domains shown)
VH: QVQLVQSGAEVKKPGASVKVSCKVSGYTFSRYWIEWVRQAPGKGLEWIGEILPGNGNINYNEKFKGKATITADTSTDTAYMELSSLRSEDTAVYYCSTIYYDYDQGFTYWGQGTLVTVSS
VL: DIQMTQSPSSLSASVGDRVTITCKASQDIDRYLSWFQQKPGKAPKSLIYRVKRLVDGVPSRFSGSASGTDYTLTISSLQPEDFATYYCLQYDEFPYTFGQGTKLEIKR
notes: Human IgG1 kappa; also called WT; Hu007 WT
